± gives the uncertainty stated by the source.
Test: self-splicing fitness, log relative to wild type (ln ratio); higher = more splicing; Tetrahymena group I intron in knt gene, E. coli kanamycin selection, DiMSum; sequences stand for … in CUCUCU…GGAGGGAAAAGUUAUCAGGCAUGCACCUGGUAGCUAGUCUUUAAACCAAUAGAUUGCAUCGGUUUAAAAGGCAAGACCGUCAAAUUGCGGGAAAGGGGUCAACAGCCGUUCAGUACCAAGUCUCAGGGGAAACUUUGAGAUGGCCUUGCAAAGGGUAUGGUAAUAAGCUGACGGACAUGGUCCUAACCACGCAGCCAAGUCCUAAGUCAACAGAUCUUCUGUUGAUAUGGAUGCAGUUCACAGACUAAAUGUCGGUCGGGGAAGAUGUAUUCUUCUCAUAAGAUAUAGUCGGACCUCUCCUUAAUGGGAGCUAGCGGAUGAAGUGAUGCAACACUGGAGCCGCUGGGAACUAAUUUGUAUGCGAAAGUAUAUUGAUUAGUUUUGGAGUACUCGUGGUCG
In short: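 Library with all eight P1ex-region intron nucleotides randomised, intron inside the knt kanamycin-resistance gene on pET-22b(+), in E. coli BL21(DE3). Cells grew overnight at 37°C or 30°C on LB agar with or without 25 μg/mL kanamycin (plus 100 μg/mL carbenicillin, 50 μM IPTG, 0.2% rhamnose), in six replicate transformations. Pooled colonies were amplicon-sequenced on Illumina HiSeq 2500. DiMSum fitness is the error-weighted combination of wild-type-normalised replicate fold changes, kanamycin versus none.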

Row | Sequence | self-splicing fitness (ln) (30 °C) | self-splicing fitness (ln) (37 °C)
1 | GGGAAGCAAUAUUACGGACC | -3.81 ± 0.4 | -2.35 ± 0.46
2 | UCGUAGCAAUAUUACGUUGA | -1.59 ± 0.16 | -0.942 ± 0.14
3 | UAAUAGCAAUAUUACGGUUA | -0.888 ± 0.11 | -0.925 ± 0.091
4 | CUGGAGCAAUAUUACGACGA | -1.9 ± 0.29 | -1.7 ± 0.33
5 | ACCAAGCAAUAUUACGAAAC | -4.33 ± 0.34 | -1.71 ± 0.25
6 | CAAAAGCAAUAUUACGCAUG | -3.93 ± 0.19 | -0.824 ± 0.15
7 | CCUCAGCAAUAUUACGUCGG | -3.36 ± 0.16 | -2.59 ± 0.19
8 | UGGCAGCAAUAUUACGUCGU | -2.65 ± 0.099 | -1.22 ± 0.096
9 | UUAUAGCAAUAUUACGUCUA | -0.963 ± 0.15 | -0.336 ± 0.11
10 | GCCCAGCAAUAUUACGACUA | -1.54 ± 0.1 | -0.508 ± 0.11
11 | UAGUAGCAAUAUUACGGAGC | -2.84 ± 0.35 | –
12 | UGCCAGCAAUAUUACGGGCU | -2.6 ± 0.19 | -1.61 ± 0.18
13 | GAAAAGCAAUAUUACGGCGA | -0.334 ± 0.07 | -0.204 ± 0.074
14 | UCCGAGCAAUAUUACGAUAG | -3.72 ± 0.24 | -2.22 ± 0.2
15 | GGCUAGCAAUAUUACGUCUG | -4.06 ± 0.31 | -2.13 ± 0.17
16 | CAUGAGCAAUAUUACGCGCG | -1.29 ± 0.15 | 0.0218 ± 0.14
17 | UAUAAGCAAUAUUACGGCAC | -1.53 ± 0.17 | -0.422 ± 0.23
18 | CCGUAGCAAUAUUACGGAGA | -3.01 ± 0.28 | -2.32 ± 0.38
19 | GCGGAGCAAUAUUACGCUUC | -2.09 ± 0.38 | –
20 | GCCGAGCAAUAUUACGGUGG | -3.52 ± 0.16 | -3.27 ± 0.23
21 | GCACAGCAAUAUUACGGAAC | -1.06 ± 0.086 | -0.752 ± 0.12
22 | ACGUAGCAAUAUUACGAGGG | -3.91 ± 0.26 | -2.92 ± 0.26
23 | ACCUAGCAAUAUUACGGAUG | -2.77 ± 0.11 | -1.24 ± 0.09
24 | UCUCAGCAAUAUUACGCGCA | -0.638 ± 0.16 | -0.617 ± 0.18
25 | UAGAAGCAAUAUUACGCAGA | -3.4 ± 0.34 | -1.79 ± 0.18

Row | Sequence | self-splicing fitness (ln) (30 °C) | self-splicing fitness (ln) (37 °C)
26 | UGAUAGCAAUAUUACGAGAC | – | -2.59 ± 0.34
27 | ACUAAGCAAUAUUACGAAGC | -3.67 ± 0.21 | -3.25 ± 0.22
28 | AGCUAGCAAUAUUACGUCGG | -2.97 ± 0.3 | -1.32 ± 0.26
29 | UCCAAGCAAUAUUACGCCAC | – | -1.13 ± 0.33
30 | UUCGAGCAAUAUUACGUCGC | -2.09 ± 0.21 | –
31 | GGAUAGCAAUAUUACGUAAU | -1.99 ± 0.13 | -0.617 ± 0.14
32 | GUCCAGCAAUAUUACGACUG | -4.63 ± 0.39 | -1.86 ± 0.22
33 | UACAAGCAAUAUUACGUUUU | -3.05 ± 0.11 | -2.32 ± 0.12
34 | GUAUAGCAAUAUUACGUGGA | -3.62 ± 0.28 | -2.23 ± 0.18
35 | AAUAAGCAAUAUUACGAAUC | -2.45 ± 0.21 | -0.866 ± 0.23
36 | UUACAGCAAUAUUACGGCCU | -0.981 ± 0.17 | -1.23 ± 0.26
37 | CACGAGCAAUAUUACGGAAU | -2.85 ± 0.25 | -1.67 ± 0.23
38 | GCUCAGCAAUAUUACGUUCG | -1.13 ± 0.065 | -0.838 ± 0.074
39 | AGCUAGCAAUAUUACGCGGG | -3.3 ± 0.15 | -1.53 ± 0.14
40 | AUGAAGCAAUAUUACGUUGC | -3.64 ± 0.2 | -3.01 ± 0.26
41 | GUCUAGCAAUAUUACGGACC | -3.95 ± 0.46 | -0.565 ± 0.24
42 | GGCCAGCAAUAUUACGCGUG | -1.22 ± 0.079 | -0.385 ± 0.092
43 | GUCAAGCAAUAUUACGACAU | -1.673 ± 0.012 | -0.579 ± 0.032
44 | CACAAGCAAUAUUACGCAAU | -3.31 ± 0.23 | -3.31 ± 0.26
45 | AGCAAGCAAUAUUACGUCCG | -0.909 ± 0.12 | -0.462 ± 0.14
46 | CAAGAGCAAUAUUACGCCGU | -1.59 ± 0.47 | –
47 | GCCAAGCAAUAUUACGGACA | -1.12 ± 0.11 | 0.31 ± 0.093
48 | CUAUAGCAAUAUUACGGUCU | -4.51 ± 0.36 | -2.14 ± 0.29
49 | UUCGAGCAAUAUUACGAUAC | -3.34 ± 0.23 | -3.26 ± 0.26
50 | CUACAGCAAUAUUACGAAAA | -2.2 ± 0.21 | -1.92 ± 0.21

Row | Sequence | self-splicing fitness (ln) (30 °C) | self-splicing fitness (ln) (37 °C)
51 | CGUGAGCAAUAUUACGUACA | -1.46 ± 0.053 | -0.707 ± 0.059
52 | UCCUAGCAAUAUUACGUUCC | -2.61 ± 0.27 | -1.72 ± 0.4
53 | UAUUAGCAAUAUUACGUAGC | -2.37 ± 0.22 | -1.31 ± 0.27
54 | CAGUAGCAAUAUUACGCGUA | -2.89 ± 0.27 | -1.64 ± 0.19
55 | AAUAAGCAAUAUUACGAAGA | -1.52 ± 0.26 | -1.92 ± 0.32
56 | UGAGAGCAAUAUUACGCUAG | -3.66 ± 0.47 | –
57 | AAUGAGCAAUAUUACGCUUU | -3.41 ± 0.23 | -2.34 ± 0.31
58 | AGAGAGCAAUAUUACGAGGC | -2.09 ± 0.25 | –
59 | AUCUAGCAAUAUUACGUUUG | -3.39 ± 0.28 | -2.04 ± 0.37
60 | CACCAGCAAUAUUACGGCGU | -2.28 ± 0.097 | -0.886 ± 0.11
61 | AGCCAGCAAUAUUACGAAGA | -1.84 ± 0.26 | -1.46 ± 0.2
62 | GCCAAGCAAUAUUACGACUA | -1.82 ± 0.17 | -1.77 ± 0.16
63 | GACCAGCAAUAUUACGAAUU | -0.37 ± 0.073 | -0.374 ± 0.1
64 | AGCAAGCAAUAUUACGCGAC | -2.95 ± 0.25 | -2.35 ± 0.26
65 | ACUCAGCAAUAUUACGAGUG | -1.59 ± 0.081 | -0.296 ± 0.11
66 | AGUUAGCAAUAUUACGUCAA | -3.02 ± 0.26 | -0.718 ± 0.13
67 | GCACAGCAAUAUUACGAACC | -0.135 ± 0.15 | 0.621 ± 0.18
68 | GACCAGCAAUAUUACGCCCG | -1.72 ± 0.12 | -0.754 ± 0.13
69 | UCCAAGCAAUAUUACGCACC | -4.36 ± 0.32 | -1.94 ± 0.21
70 | GAGAAGCAAUAUUACGAUCU | -1.66 ± 0.097 | -0.515 ± 0.095
71 | CAUAAGCAAUAUUACGGCAU | -4.06 ± 0.31 | -1.15 ± 0.2
72 | GGAUAGCAAUAUUACGGAAG | -3.41 ± 0.26 | -2.85 ± 0.24
73 | AAGCAGCAAUAUUACGGUAA | -1.25 ± 0.091 | -0.944 ± 0.094
74 | GCCCAGCAAUAUUACGGAUG | -2.15 ± 0.075 | -1.49 ± 0.092
75 | AUCAAGCAAUAUUACGUCAC | -2.32 ± 0.16 | -2.28 ± 0.3

Row | Sequence | self-splicing fitness (ln) (30 °C) | self-splicing fitness (ln) (37 °C)
76 | GAAAAGCAAUAUUACGCUGU | -2.75 ± 0.15 | -0.534 ± 0.12
77 | GAUAAGCAAUAUUACGGCUC | -0.362 ± 0.17 | 0.29 ± 0.2
78 | GUCCAGCAAUAUUACGAACU | -1.37 ± 0.074 | -0.292 ± 0.081
79 | CGGAAGCAAUAUUACGCGAU | -3.28 ± 0.28 | -2.05 ± 0.33
80 | UUUCAGCAAUAUUACGCUCU | -1.2 ± 0.093 | -0.182 ± 0.11
81 | UGACAGCAAUAUUACGACCG | 0.701 ± 0.16 | 0.698 ± 0.19
82 | CGUAAGCAAUAUUACGAUCC | -2.82 ± 0.33 | -1.82 ± 0.3
83 | AUUAAGCAAUAUUACGCGGC | – | -2.33 ± 0.31
84 | GUAAAGCAAUAUUACGUCUU | -0.455 ± 0.1 | 0.291 ± 0.12
85 | CCGGAGCAAUAUUACGAAGG | -2.63 ± 0.14 | -2.28 ± 0.22
86 | GAUUAGCAAUAUUACGAGCG | -1.27 ± 0.12 | 0.534 ± 0.12
87 | UACUAGCAAUAUUACGCGCC | – | -1.37 ± 0.37
88 | UCUCAGCAAUAUUACGCACA | -1.72 ± 0.19 | -0.264 ± 0.15
89 | UCGGAGCAAUAUUACGGUCG | -2.01 ± 0.15 | -0.73 ± 0.25
90 | GCGGAGCAAUAUUACGGCCU | – | 0.0586 ± 0.34
91 | UCCGAGCAAUAUUACGGCAU | -2.13 ± 0.13 | -1.62 ± 0.097
92 | GAUGAGCAAUAUUACGCUUG | -3.15 ± 0.39 | -1.07 ± 0.3
93 | UAAGAGCAAUAUUACGAGAU | -3.76 ± 0.33 | -2.32 ± 0.31
94 | AAGAAGCAAUAUUACGACGU | -0.168 ± 0.068 | 0.298 ± 0.1
95 | UCGUAGCAAUAUUACGGACA | -0.671 ± 0.18 | -1.49 ± 0.26
96 | ACCCAGCAAUAUUACGGAAA | -0.977 ± 0.083 | -0.213 ± 0.083
97 | ACCAAGCAAUAUUACGACUA | -0.894 ± 0.099 | -0.585 ± 0.093
98 | CGUAAGCAAUAUUACGACGC | -1.86 ± 0.3 | -2.02 ± 0.28
